Reference: the supplement of paper PMC12764529
± gives the half width of the 95% confidence interval.

Key:
[1] = folding stability dG unfold from trypsin proteolysis; higher = more stable
Summary of the method: (§1)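 Unfolding free energy was derived, per protease or combined, by relating Bayesian-fitted K50 values from sequencing counts to a sequence-predicted unfolded-state K50 and a shared folded-state K50. The underlying digests exposed cysteine-free mini-proteins under 80 residues, in a PA-tagged cDNA display construct, to trypsin and chymotrypsin at 11 threefold-diluted concentrations and to a no-protease condition. A filter kept only designs with AlphaFold2 dimer inter-PAE above 15.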

[2] = folding stability dG unfold from chymotrypsin proteolysis; higher = more stable
Summary of the method: as §1

[3] = folding stability dG unfold (combined trypsin and chymotrypsin); higher = more stable
Summary of the method: as §1

SAGGSAGGPLKVELVKAEILPGNKIIRVYRAELPTETYLAVIELHLNPDGEILSAKIKVYPLPESAGGSAGG [r6_19_TrMRF]
folding stability dG unfold [1]: 2.85 ± 0.14 kcal/mol | folding stability dG unfold [2]: 3.06 ± 0.052 kcal/mol | folding stability dG unfold [3]: 3.06 ± 0.14 kcal/mol

SAGGSAGGPLPLEELRRLLESRPDYEILSVEDESPDYVVVTVRFPFPLPSDEERTLRLRLRFPLSAGGSAGG [r6_152_TrMRF]
folding stability dG unfold [1]: 2.23 ± 0.056 kcal/mol | folding stability dG unfold [2]: 3.374 ± 0.031 kcal/mol | folding stability dG unfold [3]: 3.08 ± 0.094 kcal/mol

SAGGSAGGPLVVGRGTFPDGFTADAELRVPDSSETFYRTIEPGASLDEIPENYEVANITLSPAGSAGGSAGG [r6_758_TrMRF]
folding stability dG unfold [1]: -0.289 ± 0.12 kcal/mol | folding stability dG unfold [2]: -0.176 ± 0.13 kcal/mol | folding stability dG unfold [3]: -0.162 ± 0.13 kcal/mol

SAGGSAGGPNIEIMSMFKHPNGTIVIFIRTPEGRYIVIKIPPPGNIKIVGVYPLPPGDPLLERLSAGGSAGG [r6_715_TrROS]
folding stability dG unfold [1]: 2.43 ± 0.17 kcal/mol | folding stability dG unfold [2]: 3.14 ± 0.12 kcal/mol | folding stability dG unfold [3]: 3.06 ± 0.2 kcal/mol

SAGGSAGGPNWVKFPIMFEMPIPVVPKMEKDPDGENRMEPVKPVRISIMIELTLPPDDLEDLIKSAGGSAGG [r6_120_TrROS]
folding stability dG unfold [1]: 1.41 ± 0.083 kcal/mol | folding stability dG unfold [2]: 2.28 ± 0.11 kcal/mol | folding stability dG unfold [3]: 1.83 ± 0.18 kcal/mol

SAGGSAGGPPPAKVVEVREVTLEDLENLDKLLVVFPDGKVYTSPEALRKWLEEGKPVLVAVFEGSAGGSAGG [r6_827_TrMRF]
folding stability dG unfold [1]: 1.6 ± 0.084 kcal/mol | folding stability dG unfold [2]: 1.96 ± 0.049 kcal/mol | folding stability dG unfold [3]: 1.88 ± 0.15 kcal/mol

SAGGSAGGPPPYYMVEIEIERRNPKNGKKQKFPVTVIMPPKEAEKIKDELEEWGYEIKVDVHPISAGGSAGG [r6_97_TrROS]
folding stability dG unfold [1]: 0.856 ± 0.15 kcal/mol | folding stability dG unfold [2]: 0.393 ± 0.066 kcal/mol | folding stability dG unfold [3]: 0.74 ± 0.18 kcal/mol

SAGGSAGGPVVISVPALVKLAKELGLKLVFFPETKTVILEHPDSFLIATIDSKGNVSIAPALPESAGGSAGG [r6_155_TrMRF]
folding stability dG unfold [1]: 2.69 ± 0.09 kcal/mol | folding stability dG unfold [2]: 2.59 ± 0.049 kcal/mol | folding stability dG unfold [3]: 2.64 ± 0.091 kcal/mol

SAGGSAGGPYYIMVDIEMYNPQDGKERNFTLMIPVPPGDLPKIKEELLSAGFPIKIKNISIMPPSAGGSAGG [r6_151_TrROS]
folding stability dG unfold [1]: 2.62 ± 0.14 kcal/mol | folding stability dG unfold [2]: 2.88 ± 0.062 kcal/mol | folding stability dG unfold [3]: 2.74 ± 0.18 kcal/mol

SAGGSAGGRIPLEDIEIVEVSEETLPNTEKVYHVLVKLPEGYIEATFLPNTGLEEAVERLLALESAGGSAGG [r6_232_TrMRF]
folding stability dG unfold [1]: 0.963 ± 0.053 kcal/mol | folding stability dG unfold [2]: 0.493 ± 0.097 kcal/mol | folding stability dG unfold [3]: 0.788 ± 0.067 kcal/mol

SAGGSAGGRLEPITEEEALELARLLAEYIRRLFPGDPRPHLVVVPILVPTPEDGYRLFLAVIAESAGGSAGG [r6_844_TrMRF]
folding stability dG unfold [1]: 2.74 ± 0.079 kcal/mol | folding stability dG unfold [2]: 4.1 ± 0.039 kcal/mol | folding stability dG unfold [3]: 3.73 ± 0.067 kcal/mol

SAGGSAGGRLLLVKITLPDGEEITIVLEFESEEEARAAAEALLPPGAKVEVRELSEEELEALLKSAGGSAGG [r6_267_TrROS_Hall]
folding stability dG unfold [1]: 3.09 ± 0.049 kcal/mol | folding stability dG unfold [2]: 3.37 ± 0.044 kcal/mol | folding stability dG unfold [3]: 3.31 ± 0.052 kcal/mol

SAGGSAGGRVRIHYNPEDGYIMITFPRNNPEEIAKEILEAFNIKDVNIQVDPEEGWVSIMIKIDSAGGSAGG [r6_662_TrROS]
folding stability dG unfold [1]: 2.95 ± 0.25 kcal/mol | folding stability dG unfold [2]: 1.26 ± 0.1 kcal/mol | folding stability dG unfold [3]: 2.17 ± 0.41 kcal/mol

SAGGSAGGSAAEASVVTFPGDLTAEVTKLPDGSYAVTVTFPENPGATATLTRTPDSVTVTPSAGGSAGGSAG [r3_170_JUSTAS]
folding stability dG unfold [1]: 0.0476 ± 0.058 kcal/mol | folding stability dG unfold [2]: -1.1 ± 0.56 kcal/mol | folding stability dG unfold [3]: -0.342 ± 0.17 kcal/mol

SAGGSAGGSAAKIELEDGTLRITLTRTVRDPATGETHTETLTLEIKLPPAPPPVVVVSPEDLSAGGSAGGSA [r18_501_TrROS_Hall]
folding stability dG unfold [1]: 2.32 ± 0.072 kcal/mol | folding stability dG unfold [2]: 3.24 ± 0.037 kcal/mol | folding stability dG unfold [3]: 2.88 ± 0.092 kcal/mol

SAGGSAGGSAAPDEKLKITVELVDPNNGKRIEEKEYPNMTIEEVKKEAEEKGLKIVKIEVSSAGGSAGGSAG [r3_423_JUSTAS]
folding stability dG unfold [1]: -0.382 ± 0.083 kcal/mol | folding stability dG unfold [2]: -0.116 ± 0.061 kcal/mol | folding stability dG unfold [3]: -0.173 ± 0.29 kcal/mol

SAGGSAGGSAAPLYELEILSVDLDPDNPTVYVLARIPGTSNYVLITFPPNGDVYAYASPLPSAGGSAGGSAG [r3_294_TrMRF]
folding stability dG unfold [1]: 1.95 ± 0.06 kcal/mol | folding stability dG unfold [2]: 2.37 ± 0.06 kcal/mol | folding stability dG unfold [3]: 2.25 ± 0.17 kcal/mol

SAGGSAGGSAAVPVSETPLGTLPDGRRVRLRRYRDPDGNLYTFLEVEPLPRPLSPADLEKAAASAGGSAGGS [r12_775_TrMRF]
folding stability dG unfold [1]: 0.492 ± 0.19 kcal/mol | folding stability dG unfold [2]: 2.06 ± 0.12 kcal/mol | folding stability dG unfold [3]: 1.68 ± 0.1 kcal/mol
